{"source": "patent US20210017265A1", "about": "(RIKEN, published 2021)", "molecules": {"B1": {"name": "anti-LAP-D antibody (A10) (antibody, mouse IgG1, kappa, V domains shown)", "VH": "QVQLQQPGAELVRPGASVKLSCKTSGYSFTRFWMNWVRQRPGQGLEWIGMIHSSDSITRLNQKFKDKATLTLDYSSSTAYMQLSSPTSEDSAVYYCARGYDEYSAMDYWGQGTSVPVSS", "VL": "DIQMTQSPSSLSASLGERVSLTCRASHEISGYLGWLQRQPDGTIKRLIYAASTLDSGVPKRFSGSRSGSDYSLTISSLESEDFADYYCLQYASYPFTFGSGTKLEVKR", "notes": "Biotin-labelled when used as ELISA detection antibody; immobilised on a CM5 chip in SPR; also called isolated monoclonal antibody of the present embodiment"}, "B2": {"name": "A2D109 antibody Fab fragment (Fab, V domains shown)", "VH": "EVQLQQSGAELVRPGASVKLSCKASGYTFTSYWMNWVKQRPGQGLEWIGMIDPSDSETHYNQMFKDKATLTVDKSSSTAYMQLSSLTSEDSAVYYCVNWPYALDYWGQGTSVTVSS", "VL": "QIVLTQSPAIMSASPGEKVTMTCSASSSVSYMHWFQQKPGTSPKLWIYSTSNLASGVPARFSGSGSGTSYSLTISRMEAEDAATYYCQQRSSYPFTFGSGTKLEIKR", "notes": "Fab made from the mouse A2D109 antibody with a Mouse IgG1 Fab preparation kit; 50-kDa gel filtration fraction; the constant parts of the Fab are not; also called A2D109 Fab; A2D109Fab"}}, "key": {"[1]": {"molecular_target": "human TGF-β1-LAP (amino acid residues position-30 to position-390), recombinant, Example 4 (human) (UniProt P01137)", "sequence (P01137 30-390)": "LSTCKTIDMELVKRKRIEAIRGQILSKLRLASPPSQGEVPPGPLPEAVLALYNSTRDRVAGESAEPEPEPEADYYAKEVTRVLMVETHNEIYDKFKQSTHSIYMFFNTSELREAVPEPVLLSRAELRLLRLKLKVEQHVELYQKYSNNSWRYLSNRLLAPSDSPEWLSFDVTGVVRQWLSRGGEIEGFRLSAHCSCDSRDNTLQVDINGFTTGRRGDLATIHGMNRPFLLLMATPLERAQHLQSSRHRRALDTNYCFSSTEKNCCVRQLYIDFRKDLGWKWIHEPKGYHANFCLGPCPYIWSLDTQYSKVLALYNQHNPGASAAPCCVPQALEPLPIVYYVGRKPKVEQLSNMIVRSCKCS", "experiment": "SPR, Biacore T200; antibody immobilised on CM5, analyte 1.56-25 nM"}, "[2]": {"molecular_target": "complex of human TGF-β1 LAP-D and A2D109 antibody Fab fragment (human) (UniProt P01137)", "sequence (P01137 30-390, one chain of several)": "as the sequence (P01137 30-390) above", "experiment": "SPR, Biacore T200; antibody immobilised on CM5, analyte is the preformed LAP/A2D109 Fab complex, 1.56-25 nM"}, "[3]": {"molecular_target": "T1, human TGF-β1-LAP (amino acid residues position-30 to position-390), recombinant, Example 4 (human, UniProt P01137 30-390)", "T1 construct": "Expressed in HEK293F cells behind an Igk signal with a TEV-cleavable His tag, which was cut off; Stated molecular weight 41653 Da; also called human TGF-β1 LAP-D; TGF-β LAP", "T1 sequence (P01137 30-390)": "as above", "experiment": "SPR, Biacore T200; antibody immobilised on CM5, analyte 1.56-25 nM", "method": "(§1) Each of the anti-LAP-D antibody (A10) and the BAM2462 antibody was immobilized on a Biacore (registered trademark) sensor chip Series S Sensor Chip CM5 (manufactured by GE Healthcare). The amounts of these antibodies immobilized were 2027 RU and 310 RU, respectively. Each of a solution of human TGF-β1 LAP and a solution of a complex of human TGF-β1 LAP and A2D109 Fab was diluted with a buffer composed of 10 mM of HEPES-NaOH (pH 7.5), 150 mM of NaCl, 3 mM of EDTA and 0.005% of Surfactant P-20 to prepare solutions having various concentrations. Each of these solutions was fed to Biacore (registered trademark) T200 (manufactured by GE Healthcare). The analyte concentration in each of the solutions and the measurement conditions are shown below. Measurement data were analyzed using Biacore (registered trademark) Evaluation software to acquire date on the affinity of each of the antibodies."}, "[4]": {"molecular_target": "T2, complex of human TGF-β1 LAP-D and A2D109 antibody Fab fragment (human, UniProt P01137 30-390)", "T2 construct": "Preformed complex, mixed 1:1 by moles and purified by gel filtration; Stated molecular weight 89514 Da; Used as the SPR analyte; also called TGF-β LAP-A2D109Fab; complex of human TGF-β1 LAP and A2D109 Fab", "T2 sequence (P01137 30-390, one chain of several)": "as the sequence (P01137 30-390) above", "experiment": "SPR, Biacore T200; antibody immobilised on CM5, analyte is the preformed LAP/A2D109 Fab complex, 1.56-25 nM", "method": "as §1"}, "[5]": {"molecular_target": "T1, human TGF-β1-LAP (amino acid residues …)", "experiment": "complex formation, gel filtration", "method": "A Fab fragment (A2D109 Fab) was prepared from the A2D109 antibody using Pierce (trademark) Mouse IgG1 Fab and F(ab′)2 Preparation Kit (manufactured by Thermo Fisher). The concrete operation of the procedure was carried out in accordance with the manual included in the kit. A reaction solution produced by the procedure was purified by gel filtration using Superdex 200 Increase 10/300 GL (manufactured by GE Healthcare). A 50-kDa elution fraction was collected, and the fraction was used as A2D109 Fab. Purified recombinant TGF-β1-LAP and purified A2D109 Fab were mixed together at a molar mixing ratio of 1:1. A complex thus produced was purified by gel filtration chromatography (HiLoad 16/600 Superdex 200 pg, manufactured by GE Healthcare) using a column equilibrated with a buffer composed of 20 mM Tris-HCl (pH 8.0), 150 mM NaCl and 10% glycerol."}}}
{"molecule": "anti-human LAP TGF-β1 antibody (BAM2462, manufactured by R&D Systems)", "values": [{"measurement": "Kd", "setting": "[1]", "value": 16.7, "unit": "pM"}, {"measurement": "koff", "setting": "[1]", "value": "2.34e-05", "unit": "s⁻¹"}, {"measurement": "kon", "setting": "[1]", "value": "1.4e+06", "unit": "M⁻¹ s⁻¹"}, {"measurement": "Kd", "setting": "[2]", "value": 345, "unit": "pM"}, {"measurement": "koff", "setting": "[2]", "value": 0.000154, "unit": "s⁻¹"}, {"measurement": "kon", "setting": "[2]", "value": 447000, "unit": "M⁻¹ s⁻¹"}]}
{"molecule": "B1", "values": [{"measurement": "Kd", "setting": "[3]", "value": 214, "unit": "pM"}, {"measurement": "koff", "setting": "[3]", "value": "4.17e-05", "unit": "s⁻¹"}, {"measurement": "kon", "setting": "[3]", "value": 195000, "unit": "M⁻¹ s⁻¹"}, {"measurement": "koff", "setting": "[4]", "value": 0.000201, "unit": "s⁻¹"}, {"measurement": "kon", "setting": "[4]", "value": 304000, "unit": "M⁻¹ s⁻¹"}]}
{"molecule": "B2", "values": [{"measurement": "binding result", "setting": "[5]", "value": "binds"}]}
